Experimental data reported in publication PMC5065165, “Mechanistic Insights into Archaeal and Human Argonaute Substrate Binding and Cleavage Properties”.
Changes are numbered by the printed parent chain.

How the values were obtained:
[1] = biological target: T1, MjAgo (Methanocaldococcus jannaschii) (UniProt Q58717); assay: equilibrium fluorescence titration; details: 5'-phosphate on guide; Stopped-flow at 25 °C, 20 nM FAM-labelled guide, same buffers as titrations (buffer composition not in the material; hybridization buffer 15 mM Hepes pH 7.4 …)
T1 sequence: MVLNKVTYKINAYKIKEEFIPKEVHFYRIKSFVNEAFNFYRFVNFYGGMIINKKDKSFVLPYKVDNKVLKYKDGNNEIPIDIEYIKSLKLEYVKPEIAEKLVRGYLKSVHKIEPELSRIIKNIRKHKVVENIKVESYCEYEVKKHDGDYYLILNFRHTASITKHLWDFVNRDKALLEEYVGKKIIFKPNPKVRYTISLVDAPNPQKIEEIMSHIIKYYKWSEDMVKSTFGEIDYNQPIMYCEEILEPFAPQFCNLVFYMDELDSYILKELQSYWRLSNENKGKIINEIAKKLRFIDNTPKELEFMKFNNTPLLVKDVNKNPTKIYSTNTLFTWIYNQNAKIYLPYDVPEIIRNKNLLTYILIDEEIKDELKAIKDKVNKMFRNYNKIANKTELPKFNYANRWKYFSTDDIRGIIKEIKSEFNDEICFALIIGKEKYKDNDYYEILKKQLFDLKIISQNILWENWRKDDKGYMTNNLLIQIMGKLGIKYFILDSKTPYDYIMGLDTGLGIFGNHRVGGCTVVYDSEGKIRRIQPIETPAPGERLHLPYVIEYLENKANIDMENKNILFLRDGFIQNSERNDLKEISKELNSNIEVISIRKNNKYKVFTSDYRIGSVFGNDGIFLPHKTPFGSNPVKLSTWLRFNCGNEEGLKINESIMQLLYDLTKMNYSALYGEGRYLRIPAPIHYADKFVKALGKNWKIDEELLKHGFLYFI

[2] = biological target: T2, MjAgo (Methanocaldococcus jannaschii, UniProt Q58717 1-713); assay: equilibrium fluorescence titration; Stopped-flow at 25 °C, 20 nM FAM-labelled guide, same buffers as titrations (buffer composition not in the material; hybridization buffer 15 mM Hepes pH 7.4, 50 mM K-acetate, 1 mM Mg-acetate); details: protein: recombinant; label: C6-linked 5/6-FAM at T14
T2 sequence: T1 sequence

[3] = biological target: hAgo2 (human, UniProt Q9UKV8 1-859); assay: stopped-flow fluorescence; three-step; k1 0.1e8 M-1 s-1; Kd n.d.; Stopped-flow at 25 °C, 20 nM FAM-labelled guide, same buffers as titrations (buffer composition not in the material; hybridization buffer 15 mM Hepes pH 7.4, 50 mM K-acetate, 1 mM Mg-acetate); details: protein: recombinant; label: C6-linked 5/6-FAM at T14
Chain of hAgo2 (Q9UKV8 whole entry): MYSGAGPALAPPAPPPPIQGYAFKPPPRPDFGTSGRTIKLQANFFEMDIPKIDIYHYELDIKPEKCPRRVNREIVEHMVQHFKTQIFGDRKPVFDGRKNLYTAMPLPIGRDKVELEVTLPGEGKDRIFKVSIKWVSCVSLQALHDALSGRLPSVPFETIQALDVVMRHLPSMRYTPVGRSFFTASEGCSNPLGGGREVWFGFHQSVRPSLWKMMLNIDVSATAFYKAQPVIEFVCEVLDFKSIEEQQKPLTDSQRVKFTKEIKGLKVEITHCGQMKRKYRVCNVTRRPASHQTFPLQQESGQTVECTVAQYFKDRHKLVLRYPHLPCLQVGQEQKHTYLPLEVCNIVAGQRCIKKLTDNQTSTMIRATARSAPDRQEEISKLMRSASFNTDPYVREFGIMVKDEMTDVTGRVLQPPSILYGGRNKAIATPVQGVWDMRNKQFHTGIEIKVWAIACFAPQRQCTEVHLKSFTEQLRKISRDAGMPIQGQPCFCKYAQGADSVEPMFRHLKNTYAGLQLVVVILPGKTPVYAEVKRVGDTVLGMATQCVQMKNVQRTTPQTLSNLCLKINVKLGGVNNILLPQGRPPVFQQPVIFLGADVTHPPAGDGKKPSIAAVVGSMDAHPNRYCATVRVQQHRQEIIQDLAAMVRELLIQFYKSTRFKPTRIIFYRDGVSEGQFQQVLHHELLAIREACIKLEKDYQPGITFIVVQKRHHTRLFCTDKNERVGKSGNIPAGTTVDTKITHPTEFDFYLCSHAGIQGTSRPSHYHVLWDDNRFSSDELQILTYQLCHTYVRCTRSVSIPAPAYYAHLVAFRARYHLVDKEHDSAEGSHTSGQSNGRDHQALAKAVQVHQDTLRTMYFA

[4] = biological target: T3, MjAgo Mid mutant (Tyr442Ala) (Methanocaldococcus jannaschii, UniProt Q58717 1-713, Y442A); assay: stopped-flow fluorescence; two-step, Mid binding phase missing; k3 0.002 s-1; Kd n.d.; Stopped-flow at 25 °C, 20 nM FAM-labelled guide, same buffers as titrations (buffer composition not in the material; hybridization buffer 15 mM Hepes pH 7.4, 50 mM K-acetate, 1 mM Mg-acetate); details: protein: recombinant; label: C6-linked 5/6-FAM at T14
T3 sequence: T1 sequence with Y442A

[5] = biological target: T2, MjAgo; assay: stopped-flow fluorescence; two-step, third phase undetectable; k2 0.018 s-1; Kd n.d.; Stopped-flow at 25 °C, 20 nM FAM-labelled guide, same buffers as titrations (buffer composition not in the material; hybridization buffer 15 mM Hepes pH 7.4, 50 mM K-acetate, 1 mM Mg-acetate); details: protein: recombinant; partially mismatched; guide preloaded on Ago, target added
[6] = biological target: T2, MjAgo; assay: equilibrium fluorescence titration; target binding to preformed MjAgo-guide DNA; Stopped-flow at 25 °C, 20 nM FAM-labelled guide, same buffers as titrations (buffer composition not in the material; hybridization buffer 15 mM Hepes pH 7.4, 50 mM K-acetate, 1 mM Mg-acetate); details: protein: recombinant; label: C6-linked 5/6-FAM at guide T14; guide preloaded on Ago, target added; 3' overhang 2 nt on both strands

TAGAGGTACGTGCTGAGGCTT / GCCTCAGCACGTACCTCTATT [D-as2bFAM/D-s2b (ds siDNA, D-si2bFAM)]
Kd [1]: 103 nM

TAGAGGTACGTGCTGAGGCTT (ssDNA, 5'-phosphate) [D-as2bFAM (ss guide DNA)]
Kd [2]: 3.4 ± 0.4 nM
binding result [3]: binds
binding result [4]: binds

B1: D-as2bFAM guide DNA / 3'-mismatched target DNA (D-s2bmm) (dsDNA)
DNA 1: TAGAGGTACGTGCTGAGGCTT
DNA 2: GCCTCAGCAGCGGGAATATTT
modifications: 5'-phosphate on guide
binding result [5]: binds

B2: D-as2bFAM guide DNA / D-s2b target DNA (dsDNA)
DNA 1: TAGAGGTACGTGCTGAGGCTT
DNA 2: GCCTCAGCACGTACCTCTATT
modifications: 5'-phosphate on guide
Kd [6]: 0.5 ± 0.04 nM
